Assay [1] has as its target T1, Cynomolgus/Rhesus macaque FOLR1 Protein, His Tag (ACRO, F01-C52H8) (cynomolgus, UniProt A0A2K5U044 25-233).
T1 construct: also called cynomolgus FOLR1 protein; not shown: His tag
Kind of assay: ELISA, supernatant diluted 5x. (In general: ELISA stands for enzyme-linked immunosorbent assay.)

Assay [2] addresses T2, Human FOLR1 Protein His Tag (ACRO-FO1-H52H1) (human, UniProt P15328 25-233).
T2 construct: not shown: His tag
Kind of assay: ELISA, supernatant diluted 5x.

Assay [3] addresses T1, Cynomolgus/Rhesus macaque FOLR1 …. Kind of assay: ELISA, supernatant diluted 25x.
Assay [4] concerns the target T2, Human FOLR1 Protein His Tag …. Kind of assay: ELISA, supernatant diluted 25x.
For assay [5], the target named is T1, Cynomolgus/Rhesus macaque FOLR1 …. Kind of assay: ELISA, supernatant diluted 1x.
Assay [6] concerns the target T2, Human FOLR1 Protein His Tag …. Kind of assay: ELISA, supernatant diluted 1x.
Assay [7] has the same target. Kind of assay: ELISA, HEK293 supernatant on coated antigen.

Consider ten molecules from patent US20240207429A1 (PROFOUNDBIO US, published 2024).

T1 sequence (A0A2K5U044 entry or part of it): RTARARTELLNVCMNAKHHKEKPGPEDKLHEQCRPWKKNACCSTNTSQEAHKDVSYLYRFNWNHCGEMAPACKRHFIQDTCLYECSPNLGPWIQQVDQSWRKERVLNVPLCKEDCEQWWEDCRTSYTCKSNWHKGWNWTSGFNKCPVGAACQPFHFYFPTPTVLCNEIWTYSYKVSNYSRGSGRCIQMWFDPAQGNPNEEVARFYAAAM
T2 sequence (P15328 25-233 limits assumed): as the sequence (A0A2K5U044 entry or part of it) above, with T2I, R4W, K37R, P146A, Y171H counted along it

B1: F1 (antibody, V domains shown)
VH: EVQLLESGGGVVQPGRSLRLSCAASGFTFSSYGMHWVRQAPGKGLEWVAVISYDGSNKYYADSVKGRFTISRDNSKNTLYLQMNSLRAEDTAVYYCARPRAYYGAYGSSFDYWGQGTQVTVSS
VL: EIVMTQSPSSVSASVGDRVAITCRASQGISSWLAWYQQKPGKAPKLLIYAASSLQSGVPSRFSGSGSGTDFTLTISSLQPEDFATYYCQQSYSTPLTFGGGTKVDIK
notes: also called clone F1; anti-FOLR1 antibody F1
As to B1, the OD450 was determined as 1.26 in assay [1]; 1.45 in assay [2]; 0.994 in assay [3]; 1.18 in assay [4]; 1.38 in assay [5]; 1.66 in assay [6]. In assay [7], this molecule had an OD450 of 2.43.

B2: F40 (antibody, V domains shown)
VH: EVQLLESGGGVVQPGRSLRLSCAASGFTFSSYAMHWVRQAPGKGLEWVAVISYDGSNKYYADSVKGRFIISRDNSKNTVYLQMNSLRAEDTAVYYCARPTYVFTYTGSSFDYWGQGTQVTVSS
VL: DIQVTQSPSSLSASLGDTVSITCRASRGLTDSVAWYQQKPGQAPKLLIYAASTLQSGVPSRFGGSGSGSYFTLTITSLQPEDVATYYCQNYKSAPWTFGQGTKVEIK
notes: also called clone F40; anti-FOLR1 antibody F40
With B2, the OD450 turned out to be 1.11 in assay [1]; 0.382 in assay [2]; 0.924 in assay [3]; 0.163 in assay [4]; 1.35 in assay [5]; 0.811 in assay [6]. Further, the OD450 in assay [7] came out at 2.39.

B3: F138 (antibody, V domains shown)
VH: EVQLLESGGGVVQPGRSLRLSCAASGFTFSSYGMHWVRQAPGKGLEWVAVISYDGSNKYYADSVKGRFTISTHNSKNTLYLQMNSLRAEDTAVYYCARPRAYYGAYGSSFDYWGQGTQVTVSS
VL: EIVMTQSPSSVSASVGDRVAITCRASQGISSWLAWYQQKPGKAPKLLIYAASSLQSGVPSRFSGSGSGTDFTLTISSLQPEDFATYYCQQSYSTPLTFGGGTKVDIK
notes: also called clone F138; anti-FOLR1 antibody F138
As for B3, the OD450 in assay [1] was 1.14; in assay [2], 1.69; in assay [3], 1.17; in assay [4] it was 0.827; in assay [5], 1.14; in assay [6], 1.64. In assay [7], the OD450 was determined as 2.41.

B4: F48 (antibody, V domains shown)
VH: EVQLLESGGGVVQPGRSLRLSCAASGFTFSSYGMHWVRQAPGKGLEWVAVISYDGSNKYYADSVKGRFTISRDNSKNTLYLHMNSLRAEDTAVYYCARPRAYYGAYGSSFDYWGQGTQVTVSS
VL: EIVMTQSPSSVSASVGDRVAITCRASQGISSWLAWYQQKPGKAPKLLIYAASSLQSGVPSRFSGSGSGTDFTLTISSLQPEDFATYYCQQSYSTPLTFGGGTKVDIK
notes: also called clone F48; anti-FOLR1 antibody F48
Turning to B4, the OD450 worked out at 1.04 in assay [1]; 1.59 in assay [2]; 0.908 in assay [3]; 1.29 in assay [4]; 1.15 in assay [5]; 1.56 in assay [6]. The molecule also had an OD450 in assay [7] of 2.54.

B5: F26 (antibody, V domains shown)
VH: EVQLLESGGGVVQRGRSLRLSCAASGFTFSSYGMHWVRQAPGKGLEWVAVISYDGSNKYYADSVKGRFTISRDNSKNTLYLPMNSLRAEDTAVYYCARPRAYYGAYGSSFDYWGQGTQVTVSS
VL: EIVMTQSPSSVSASVGDRVAITCRASQGISSWLAWYQQKPGKAPKLLIYAASSLQSGVPSRFSGSGSGTDFTLTISSLQPEDFATYYCQQSYSTPLTFGGGTKVDIK
notes: also called clone F26; anti-FOLR1 antibody F26
With B5, the OD450 was determined as 1.21 in assay [1]; 1.51 in assay [2]; 1.02 in assay [3]; 1.48 in assay [4]; 1.24 in assay [5]; 1.64 in assay [6]. The OD450 in assay [7] worked out at 2.43.

B6: F8 (antibody, V domains shown)
VH: EVQLLESGGGVVQHGRSLRLSCAASGFTFSSYGMHWVRQAPGKGLEWVAVISYDGSNKYYADSVKGRFTISRDNSKNTLYLQMNSLRAEDTAVYYCARPRAYYGAYGSSFDYWGQGTQVTVSS
VL: EIVMTQSPSSVSASVGDRVAITCRASQGISSWLAWYQQKPGKAPKLLIYAASSLQSGVPSRFSGSGSGTDFTLTISSLQPEDFATYYCQQSYSTPLTFGGGTKVDIK
notes: also called clone F8; anti-FOLR1 antibody F8
Take B6: the OD450 in assay [1] worked out at 1.28; in assay [2], 1.65; in assay [3], 1.06; in assay [4], 1.31; in assay [5], 0.896; in assay [6], 1.67. Moreover, in assay [7], the OD450 is 2.45.

B7: F112 (antibody, V domains shown)
VH: EVQLLESGGGVVQPGRSLRLSCAASGFTFSSYGMHWVRQAPGKGLEWVAVISYDGSNKYYADSVKGRFTISRHNSKNTLYLQMNSLRAEDTAVYYCARPRAYYGAYGSSFDYWGQGTQVTVSS
VL: EIVMTQSPSSVSASVGDRVAITCRASQGISSWLAWYQQKPGKAPKLLIYAASSLQSGVPSRFSGSGSGTDFTLTISSLQPEDFATYYCQQSYSTPLTFGGGTKVDIK
notes: also called clone F112; anti-FOLR1 antibody F112
For the molecule B7, the OD450 in assay [1] came out at 1.21; in assay [2], 1.42; in assay [3] it was 0.933; in assay [4], 1.17; in assay [5], 1.26; in assay [6] it was 1.56. In assay [7], this molecule came in with an OD450 of 2.35.

B8: F100 (antibody, V domains shown)
VH: EVQLLESGGGVVQPGRSLRLSCAASGFTFSSYGMHWVRQAPGKGLEWVAVISYDGSNKYYADSVKGRFTISRPNSKNTLYLQMNSLRAEDTAVYYCARPRAYYGAYGSSFDYWGQGTQVTVSS
VL: EIVMTQSPSSVSASVGDRVAITCRASQGISSWLAWYQQKPGKAPKLLIYAASSLQSGVPSRFSGSGSGTDFTLTISSLQPEDFATYYCQQSYSTPLTFGGGTKVDIK
notes: also called clone F100; anti-FOLR1 antibody F100
As for B8, the OD450 is 1.03 in assay [1]; 1.53 in assay [2]; 0.875 in assay [3]; 1.18 in assay [4]; 1.16 in assay [5]; 1.61 in assay [6]. In assay [7], this molecule had an OD450 of 2.3.

B9: F123 (antibody, V domains shown)
VH: EVQLLESGGGVVQPERSLRLSCAASGFTFSSYGMHWVRQAPGKGLEWVAVISYDGSNKYYADSVKGRFTISRANSKNTLYLQMNSLRAEDTAVYYCARPRAYYGAYGSSFDYWGQGTQVTVSS
VL: EIVMTQSPSSVSASVGDRVAITCRASQGISSWLAWYQQKPGKAPKLLIYAASSLQSGVPSRFSGSGSGTDFTLTISSLQPEDFATYYCQQSYSTPLTFGGGTKVDIK
notes: also called clone F123; anti-FOLR1 antibody F123
B9: the OD450 came to 1.3 in assay [1]; 1.47 in assay [2]; 1.07 in assay [3]; 1.33 in assay [4]; 1.36 in assay [5]; 1.72 in assay [6]. The OD450 in assay [7] stood at 2.32.

B10: F131 (antibody, V domains shown)
VH: EVQLLESGGGVVQPGRSLRLSCAASGFTFSSYGMHWVRQAPGKGLEWVAVISYDGSNKYYADSVKGRFTISRANSKNTLYLQMNSLRAEDTAVYYCARPRAYYGAYGSSFDYWGQGTQVTVSS
VL: EIVMTQSPSSVSASVGDRVAITCRASQGISSWLAWYQQKPGKAPKLLIYAASSLQSGVPSRFSGSGSGTDFTLTISSLQPEDFATYYCQQSYSTPLTFGGGTKVDIK
notes: also called clone F131; F131 mAb
B10: the OD450 in assay [1] turned out to be 1.27; in assay [2], 1.52; in assay [3] it was 1.09; in assay [4], 1.38; in assay [5], 1.2; in assay [6], 1.61. The same molecule registered an OD450 in assay [7] of 2.35.
